Measured values from paper PMC9060465, “Structural determinants of dual incretin receptor agonism by tirzepatide” (Proceedings of the National Academy of Sciences of the …, 2022).

Columns and labels:
[1] = target: isolated extracellular domain (ECD) of human GIPR, amino acids 26 to 138 (human) (UniProt P48546); test: SPR
[2] = target: isolated extracellular domain (ECD) of human GLP-1R, amino acids 24 to 145 (human) (UniProt P43220); test: SPR
[3] = target: human GIPR expressed in HEK293 cells (human) (UniProt P48546); test: radioligand binding
[4] = target: human GLP-1R expressed in HEK293 cells (human) (UniProt P43220); test: radioligand binding
[5] = target: mouse GLP-1R, endogenous in pancreatic islets (mouse (endogenous in pancreatic islets)) (UniProt O35659)
[6] = target: human GLP-1R expressed in HEK293 cells (human) (UniProt P43220); conditions: ligand

Chain of mouse GLP-1R, endogenous in pancreatic islets (mouse (endogenous in pancreatic islets)) (O35659 22-463): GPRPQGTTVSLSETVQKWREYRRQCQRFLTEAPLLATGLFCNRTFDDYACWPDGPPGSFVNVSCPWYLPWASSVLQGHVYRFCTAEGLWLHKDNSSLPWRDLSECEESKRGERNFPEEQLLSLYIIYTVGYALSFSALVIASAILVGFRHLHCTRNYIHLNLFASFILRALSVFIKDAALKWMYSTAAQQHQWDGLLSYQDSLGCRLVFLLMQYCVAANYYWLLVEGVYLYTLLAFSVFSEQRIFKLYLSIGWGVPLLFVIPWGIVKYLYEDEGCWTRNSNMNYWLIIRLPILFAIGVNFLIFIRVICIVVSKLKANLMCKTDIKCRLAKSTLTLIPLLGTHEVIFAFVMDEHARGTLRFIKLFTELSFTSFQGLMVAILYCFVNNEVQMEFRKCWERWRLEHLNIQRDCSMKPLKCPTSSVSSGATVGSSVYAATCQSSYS
Chain of human GLP-1R expressed in HEK293 cells (human) (P43220 24-463): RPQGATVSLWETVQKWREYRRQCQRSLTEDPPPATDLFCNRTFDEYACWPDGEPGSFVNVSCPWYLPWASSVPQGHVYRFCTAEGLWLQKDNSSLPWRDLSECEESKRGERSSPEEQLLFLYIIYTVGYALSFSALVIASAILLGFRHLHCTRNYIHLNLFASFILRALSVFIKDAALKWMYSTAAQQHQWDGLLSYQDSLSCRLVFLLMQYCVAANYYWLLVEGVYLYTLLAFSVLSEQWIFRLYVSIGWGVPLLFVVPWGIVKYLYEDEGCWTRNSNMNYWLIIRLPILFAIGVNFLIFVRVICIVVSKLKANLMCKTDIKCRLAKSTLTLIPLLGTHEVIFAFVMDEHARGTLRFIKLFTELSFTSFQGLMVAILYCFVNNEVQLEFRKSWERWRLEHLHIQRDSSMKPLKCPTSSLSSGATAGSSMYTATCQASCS
Chain of isolated extracellular domain (ECD) of human GIPR, amino acids 26 to 138 (human) (P48546 26-138): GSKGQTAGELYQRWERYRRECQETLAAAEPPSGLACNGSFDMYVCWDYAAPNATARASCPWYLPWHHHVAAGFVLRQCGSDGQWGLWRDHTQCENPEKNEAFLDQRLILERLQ
Chain of isolated extracellular domain (ECD) of human GLP-1R, amino acids 24 to 145 (human) (P43220 24-145): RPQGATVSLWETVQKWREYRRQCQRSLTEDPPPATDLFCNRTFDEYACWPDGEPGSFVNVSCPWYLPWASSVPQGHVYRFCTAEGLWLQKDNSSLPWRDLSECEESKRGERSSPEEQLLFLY
Chain of human GIPR expressed in HEK293 cells (human) (P48546 22-466): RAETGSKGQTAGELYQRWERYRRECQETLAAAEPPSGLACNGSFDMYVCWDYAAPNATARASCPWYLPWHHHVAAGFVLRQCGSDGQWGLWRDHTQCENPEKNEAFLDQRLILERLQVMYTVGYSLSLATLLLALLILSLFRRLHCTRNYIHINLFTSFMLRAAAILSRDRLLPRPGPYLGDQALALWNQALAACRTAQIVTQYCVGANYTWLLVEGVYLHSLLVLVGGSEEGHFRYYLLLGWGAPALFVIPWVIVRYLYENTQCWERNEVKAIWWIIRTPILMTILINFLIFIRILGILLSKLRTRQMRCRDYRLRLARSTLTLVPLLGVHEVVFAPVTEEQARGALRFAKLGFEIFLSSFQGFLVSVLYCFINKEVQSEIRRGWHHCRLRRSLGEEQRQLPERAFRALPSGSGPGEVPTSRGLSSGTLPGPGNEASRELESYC

Substance	Kd [1] [µM]	other [4] [fold]	intracellular fluorescence intensity of islet cells from wild-type mice, 30 nM labelled ligand for 30 min, confocal microscopy; negligible (≤4.0) after exendin-4(9-39) or in Glp-1r null islets [5]	also measured
tirzepatide analog lacking the lipid moiety (TZP^ΔC20) (peptide)	1.7	5		Kd [2]: 0.111 µM; other [3]: 4 fold
GLP-1^AF647 (ligand)			104	
tirzepatide^AF647 (peptide)			46	
tirzepatide^ΔC20,Y1H-AF647 (peptide)			85.3	
tirzepatide (LY3298176) (peptide)	4.2	5		
glucagon-like peptide-1 (GLP-1)				Ki [6]: 0.000594 µM
